{"source": "patent US20220387487A1", "about": "“COMPOSITIONS AND METHODS FOR TREATMENT OF CANCER” (Aleta Biotherapeutics Inc., priority 2019, published 2022)", "molecules": {"B1": {"name": "CD19 variant-anti-CLL-1 VHH(1B12) (construct #321) (other)", "chain": "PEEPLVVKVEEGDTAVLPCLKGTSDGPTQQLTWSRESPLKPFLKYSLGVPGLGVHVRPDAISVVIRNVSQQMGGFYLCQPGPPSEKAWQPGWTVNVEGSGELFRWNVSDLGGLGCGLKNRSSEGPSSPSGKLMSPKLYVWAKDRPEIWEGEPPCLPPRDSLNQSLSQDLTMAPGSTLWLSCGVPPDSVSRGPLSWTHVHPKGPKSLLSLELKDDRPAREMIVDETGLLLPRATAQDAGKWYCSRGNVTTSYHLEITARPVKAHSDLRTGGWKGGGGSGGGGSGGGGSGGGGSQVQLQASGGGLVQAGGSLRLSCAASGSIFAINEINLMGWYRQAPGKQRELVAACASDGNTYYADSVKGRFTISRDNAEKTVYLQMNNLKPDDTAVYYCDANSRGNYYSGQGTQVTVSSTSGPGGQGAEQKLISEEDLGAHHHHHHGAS", "notes": "Fusion of a CD19 variant extracellular domain, linker, anti-CLL-1 VHH 1B12 and myc-His tag"}, "B2": {"name": "#321: purified fusion protein of CD19 variant and anti-CLL-1 VHH; SEQ ID NO:303 (protein)", "chain": "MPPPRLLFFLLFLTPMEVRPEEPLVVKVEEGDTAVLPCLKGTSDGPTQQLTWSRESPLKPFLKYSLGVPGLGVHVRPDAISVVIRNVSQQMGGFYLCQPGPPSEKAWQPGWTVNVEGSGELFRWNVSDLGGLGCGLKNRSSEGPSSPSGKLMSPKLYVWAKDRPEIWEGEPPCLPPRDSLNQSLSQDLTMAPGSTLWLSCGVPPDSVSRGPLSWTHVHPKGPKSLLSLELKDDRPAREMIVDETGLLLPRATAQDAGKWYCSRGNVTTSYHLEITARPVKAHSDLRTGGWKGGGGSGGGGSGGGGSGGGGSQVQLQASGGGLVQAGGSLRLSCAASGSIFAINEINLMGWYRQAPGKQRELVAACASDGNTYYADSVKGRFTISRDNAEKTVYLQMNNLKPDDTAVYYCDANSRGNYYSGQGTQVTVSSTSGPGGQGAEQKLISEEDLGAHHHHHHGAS"}, "B3": {"name": "#410: fusion protein containing the CD19 ECD and anti-CD33 scFv; SEQ ID NO:325 (protein)", "chain": "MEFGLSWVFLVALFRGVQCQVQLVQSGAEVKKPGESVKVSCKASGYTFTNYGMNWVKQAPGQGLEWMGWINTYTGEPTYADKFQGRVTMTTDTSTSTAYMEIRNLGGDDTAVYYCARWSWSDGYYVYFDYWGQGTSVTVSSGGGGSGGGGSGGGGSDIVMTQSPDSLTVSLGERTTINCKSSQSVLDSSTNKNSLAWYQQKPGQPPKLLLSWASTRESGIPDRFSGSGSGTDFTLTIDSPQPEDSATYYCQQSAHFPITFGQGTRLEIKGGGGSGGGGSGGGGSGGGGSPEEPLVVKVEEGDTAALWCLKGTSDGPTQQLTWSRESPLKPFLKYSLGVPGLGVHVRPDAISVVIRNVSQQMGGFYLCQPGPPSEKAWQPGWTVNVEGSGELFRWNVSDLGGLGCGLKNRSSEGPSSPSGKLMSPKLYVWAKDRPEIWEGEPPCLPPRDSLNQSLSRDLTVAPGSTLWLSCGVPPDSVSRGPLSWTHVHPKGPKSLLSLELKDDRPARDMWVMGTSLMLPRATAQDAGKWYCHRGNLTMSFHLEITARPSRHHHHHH"}, "B4": {"name": "anti-CD33 scFv-anti-CLL VHH (2H3)-CD19 variant (construct #440) (other)", "chain": "QVQLVQSGAEVKKPGESVKVSCKASGYTFTNYGMNWVKQAPGQGLEWMGWINTYTGEPTYADKFQGRVTMTTDTSTSTAYMEIRNLGGDDTAVYYCARWSWSDGYYVYFDYWGQGTSVTVSSGGGGSGGGGSGGGGSDIVMTQSPDSLTVSLGERTTINCKSSQSVLDSSTNKNSLAWYQQKPGQPPKLLLSWASTRESGIPDRFSGSGSGTDFTLTIDSPQPEDSATYYCQQSAHFPITFGQGTRLEIKGGGGSGGGGSGGGGSGGGGSQVQLQESGGGLVQAGGSLRLSCVASGSIRSINVMGWYRQAPGKQRELVAACASDGNTYYADSVKGRFTISRDNAEKTVYLQMNNLKPDDTAVYYCDANSRGNYYSGQGTQVTVSSTSGPGGQGAGGGGSGGGGSGGGGSGGGGSPEEPLVVKVEEGDTAALWCLKGTSDGPTQQLTWSRESPLKPFLKYSLGVPGLGVHVRPDAISVVIRNVSQQMGGFYLCQPGPPSEKAWQPGWTVNVEGSGELFRWNVSDLGGLGCGLKNRSSEGPSSPSGKLMSPKLYVWAKDRPEIWEGEPPCLPPRDSLNQSLSRDLTVAPGSTLWLSCGVPPDSVSRGPLSWTHVHPKGPKSLLSLELKDDRPARDMWVMGTSLMLPRATAQDAGKWYCHRGNLTMSFHLEITARPSRHHHHHH"}, "B5": {"name": "anti-CD33 scFv-variant CD19-His (construct #410) (other)", "chain": "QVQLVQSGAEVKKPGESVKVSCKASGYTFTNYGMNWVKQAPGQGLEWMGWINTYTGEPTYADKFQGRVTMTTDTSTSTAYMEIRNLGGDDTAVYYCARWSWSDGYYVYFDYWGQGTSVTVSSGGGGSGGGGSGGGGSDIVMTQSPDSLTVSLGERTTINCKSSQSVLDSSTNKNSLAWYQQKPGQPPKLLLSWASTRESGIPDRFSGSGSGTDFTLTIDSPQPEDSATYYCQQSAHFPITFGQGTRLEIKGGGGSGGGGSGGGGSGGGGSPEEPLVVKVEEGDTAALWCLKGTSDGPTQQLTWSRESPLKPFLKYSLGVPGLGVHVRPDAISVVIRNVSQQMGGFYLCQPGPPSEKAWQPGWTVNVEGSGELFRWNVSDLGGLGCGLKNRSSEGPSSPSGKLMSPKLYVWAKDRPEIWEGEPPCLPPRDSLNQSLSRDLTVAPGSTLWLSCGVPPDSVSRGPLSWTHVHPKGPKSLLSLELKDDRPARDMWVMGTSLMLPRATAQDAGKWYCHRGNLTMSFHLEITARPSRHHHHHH", "notes": "also called anti-CD33 scFv fusion protein"}}, "key": {"[1]": {"molecular_target": "T1, CLL-1 (CLEC12A) on CLL-1 positive cell lines (U937, OCI-AML-5) (human, UniProt Q5QGZ9 1-265)", "T1 construct": "whole, on cells; also called MICL", "T1 sequence": "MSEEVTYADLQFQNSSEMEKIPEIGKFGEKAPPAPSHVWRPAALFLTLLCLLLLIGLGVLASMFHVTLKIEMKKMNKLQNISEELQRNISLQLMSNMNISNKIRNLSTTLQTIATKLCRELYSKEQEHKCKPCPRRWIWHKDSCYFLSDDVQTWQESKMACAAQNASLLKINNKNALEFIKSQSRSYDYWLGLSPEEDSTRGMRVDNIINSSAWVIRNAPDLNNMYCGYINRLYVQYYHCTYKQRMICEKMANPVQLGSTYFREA", "assay": "flow cytometry on CLL-1 positive U937 cells, FMC63-PE detection"}, "[2]": {"molecular_target": "T1, CLL-1 (CLEC12A) on CLL-1 positive cell …", "assay": "cell-based or functional assay"}, "CLEC12A [3]": {"molecular_target": "CLEC12A", "assay": "ELISA binding of fusion proteins (FMC63 coat, HRP-anti-His detection)", "set-up": "species or system human", "conditions": "purified fusion protein, FMC63 coat; read-out: CLEC12A binding (ELISA EC50)", "description": "The binding of the biparatopic fusion proteins to CLEC12A was also examined by ELISA. […] The plate was left to incubate overnight at 4° C. The coated plate was blocked with TBS/0.3% nonfat dry milk (NFD) for 60 minutes at RT."}, "Molm14 cells": {"system": "Molm14 cells", "assay": "CAR-CD19 T cell cytotoxicity bridged by purified fusion protein, luciferase Molm14 cells", "type": "cell-based", "conditions": "FIG. 21A", "description": "To test cytoxicity, luciferase labeled Molm14 or U937 cells were targeted for cytotoxic killing using a CAR19 T cell preparation and the purified proteins #330, #410 and #440 added in a dose titration. 1×10^4 target cells were added to each well (96 clear round bottom plate) in RPMI medium. The protein titration was started at 180 ng/ml with 3-fold serial titration into corresponding wells (25 μl per well). CAR-CD19 T cells were added at various E:T ratios to the target cells. After 48 hours the plate was centrifuged (450 RCF for 5 minutes) and the cells were washed 1× with PBS then centrifuged a second time. 20 μl lysis buffer was added into each well. The cell lysate was transferred to a 96 opaque white plate. The plates were read in a luminometer with an injector (Glomax Multi Detection System, Promega). The percent killing was calculated based upon the average loss of luminescence of the experimental vs the control (target cell only or target cell plus fusion protein only)."}, "CLEC12A [4]": {"molecular_target": "T2, CLEC12A (Homo sapiens, UniProt Q5QGZ9, K244Q)", "T2 sequence (Q5QGZ9 65-265 K244Q)": "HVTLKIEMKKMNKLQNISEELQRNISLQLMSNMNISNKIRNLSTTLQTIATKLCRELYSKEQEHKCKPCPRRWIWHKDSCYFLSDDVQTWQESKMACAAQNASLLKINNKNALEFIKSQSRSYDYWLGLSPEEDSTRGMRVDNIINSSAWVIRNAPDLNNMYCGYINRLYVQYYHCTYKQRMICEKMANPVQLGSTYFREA", "assay": "ELISA of fusion proteins, FMC63 coat, biotinylated CLEC12A detection", "type": "binding"}, "CD33": {"molecular_target": "CD33 (Homo sapiens, UniProt P20138)", "assay": "ELISA of fusion proteins, FMC63 coat, biotinylated CD33 detection", "type": "binding", "conditions": "ELISA, FMC63 coat, biotinylated CD33", "description": "ELISAs for binding to CD19, CLEC12A and CD33 were run using purified fusion proteins #330, #410 and #440. A 96 well plate was coated with 1.0 μg/ml FMC63 (Novus) in 0.1 M carbonate, pH 9.5 overnight at 4° C. The plate was blocked with 0.3% non-fat milk in TBS for 1 hour at room temperature. After washing in TBST (0.1 M Tris, 0.5 M NaCl, 0.05% Tween20) 3 times, the fusion protein supernatant was titrated using 3-fold dilutions in 1% BSA in TBS and incubated 1 hour at room temperature. For detection by anti-His, after washing 3 times in TBST, HRP-anti-His (BioLegend) was added at 1:2000. The plate was incubated at room temperature in the dark for 1 hour. For detection of binding to CLEC12A, biotinylated CLEC12A was added at 0.5 μg/ml and incubated for 1 hour. This was followed by adding HRP-SA (Pierce) at 1:2000 and incubated at room temperature in the dark for 1 hour. For testing binding to CD33, biotinylated CD33 was added at 0.5 μg/ml and incubated for 1 hour. This was followed by adding HRP-SA (Pierce) at 1:2000 and incubated at room temperature in the dark for 1 hour. Then, 1-Step Ultra TMB-ELISA (Thermo Fisher) solution, was added and the plate read at […]. Curves were fit using a four-parameter logistic (4 PL) regression to calculate the EC50."}, "biotinylated CD33": {"molecular_target": "biotinylated CD33 (UniProt P20138 18-259, biotinylated (site not stated))", "assay": "ELISA: fusion protein captured on FMC63, biotinylated CD33, HRP-SA"}, "CD33 on U937 cells [5]": {"molecular_target": "T3, CD33 on U937 cells (UniProt P20138 18-364, limits assumed)", "T3 construct": "whole, on cells", "assay": "flow cytometry on U937 cells (cell line per paragraph 272), purified fusion protein, detection with FMC63-PE, % Binding; the cells carry both CLEC12A and CD33, the value is for the whole cell and is not split between the two antigens"}, "[6]": {"molecular_target": "T1, CLL-1 (CLEC12A) on CLL-1 positive cell …", "assay": "flow cytometry on U937 cells (cell line per paragraph 272), purified fusion protein, detection with FMC63-PE, % Binding; the cells carry both CLEC12A and CD33, the value is for the whole cell and is not split between the two antigens"}, "CD33 on U937 cells [7]": {"molecular_target": "T3, CD33 on U937 cells", "assay": "flow cytometry on U937 cells (cell line per paragraph 272), purified fusion protein, detection with FMC63-PE, % Binding"}}, "note": "“And” between values parts separate entries of the source, which are not always exact repeats. Equal entries are not always repeated.", "data": [{"molecule": "B1", "values": [{"measurement": "EC50", "setting": "[1]", "result": 3, "unit": "nM"}, {"measurement": "CLEC12A-cell cytotoxicity (IC50 n = 2-3)", "setting": "[2]", "result": 0.027, "unit": "nM"}]}, {"molecule": "B2", "values": [{"measurement": "EC50", "setting": "CLEC12A [3]", "result": 0.09, "unit": "nM"}]}, {"molecule": "B3", "values": [{"measurement": "cytotoxicity on Molm14 cells", "setting": "Molm14 cells", "result": "about equipotent"}, {"measurement": "CLEC12A binding EC50 pM", "setting": "CLEC12A [4]", "result": "∞"}, {"measurement": "CLEC12A binding EC50 ng/ml", "setting": "CLEC12A [4]", "result": "∞"}, {"measurement": "CD33 binding EC50", "setting": "CD33", "result": 3.0, "unit": "ng/mL"}]}, {"molecule": "B4", "values": [{"measurement": "EC50", "setting": "biotinylated CD33", "result": "0.0021 µg/mL and 0.0292 nM"}, {"measurement": "EC50", "setting": "CD33 on U937 cells [5]", "result": "0.00796 µg/mL and 0.111 nM"}, {"measurement": "EC50", "setting": "[6]", "result": "0.00796 µg/mL and 0.111 nM"}]}, {"molecule": "B5", "values": [{"measurement": "EC50", "setting": "biotinylated CD33", "result": "0.003 µg/mL and 0.0522 nM"}, {"measurement": "EC50", "setting": "CD33 on U937 cells [7]", "result": "0.0213 µg/mL and 0.37 nM"}]}]}
